A word on the Kd: it is the concentration at which binding is half-saturated. Read a high Kd as a looser complex. What is called stoichiometry N is the number of molecules, sites or subunits per partner or assembly.

Where no end group is shown, it is not given here. A value given as a limit tells only on which side of the number the result lay.

From publication doi:10.1101/2021.08.25.457680 come the findings set out here.

For experiment [1], the target named is hDLG1 PDZ1+2 tandem (human) (UniProt Q12959). Nature of the experiment: NMR titration.
For experiment [2], the target named is hDLG1 PDZ2 domain (human). Nature of the experiment: ITC. On the technique in general: ITC needs no label: the signal is the heat of the interaction.
hDLG1 PDZ2 domain (human), sequence (Q12959 219-551): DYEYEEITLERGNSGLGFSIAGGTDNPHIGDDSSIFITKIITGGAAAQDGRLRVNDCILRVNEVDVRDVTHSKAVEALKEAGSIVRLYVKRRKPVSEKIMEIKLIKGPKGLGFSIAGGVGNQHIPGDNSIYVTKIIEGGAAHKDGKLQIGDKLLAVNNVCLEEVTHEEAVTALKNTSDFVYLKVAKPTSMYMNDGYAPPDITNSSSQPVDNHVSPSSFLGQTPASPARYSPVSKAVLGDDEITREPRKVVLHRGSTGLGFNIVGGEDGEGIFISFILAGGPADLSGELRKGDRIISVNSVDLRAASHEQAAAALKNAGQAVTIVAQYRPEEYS
In experiment [3] the target is hDLG1 PDZ1 domain (human). Put plainly: ITC.
hDLG1 PDZ1 domain (human), sequence (Q12959 219-551): as above
The target of experiment [4] is syntenin-1 PDZ1 domain (human). Nature of the experiment: NMR titration.
syntenin-1 PDZ1 domain (human), sequence (O00560 whole entry, the tested form may be a part): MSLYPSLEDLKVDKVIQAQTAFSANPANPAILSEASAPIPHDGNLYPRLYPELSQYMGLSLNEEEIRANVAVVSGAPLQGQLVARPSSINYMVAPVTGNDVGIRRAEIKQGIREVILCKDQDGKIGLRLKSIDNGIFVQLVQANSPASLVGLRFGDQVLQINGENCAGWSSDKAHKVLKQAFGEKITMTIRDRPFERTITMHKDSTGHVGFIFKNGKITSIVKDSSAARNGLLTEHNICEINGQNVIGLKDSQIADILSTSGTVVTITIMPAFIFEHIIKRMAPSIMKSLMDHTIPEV
In experiment [5] the target is syntenin-1 PDZ2 domain (human). Nature of the experiment: NMR titration.
syntenin-1 PDZ2 domain (human), sequence (O00560 whole entry, the tested form may be a part): as above
Experiment [6] has as its target hDLG1 PDZ1 domain (human). Nature of the experiment: NMR titration.

“Tax2 10mer peptide (last 10 amino acids of Tax-2)” showed a Kd in experiment [1] of over 5000 µM.

B1: Tax-1 10mer peptide (last 10 C-terminal amino acids of Tax-1) (peptide)
peptide: SEKHFRETEV
B1: the Kd in experiment [2] was determined as 0.9 µM; in experiment [3] it was 2.7 µM; in experiment [4], 2580 µM; in experiment [5], 1550 µM. In addition, the figures for the dH in experiment [2] and in experiment [3] were -10.4 kcal/mol and -8 kcal/mol, respectively. For the same molecule, the stoichiometry N in experiment [2] is 0.99; in experiment [3] it was 1.03.

B2: C-terminally amidated Tax-1 10mer peptide (Tax-1mod) (peptide)
peptide: SEKHFRETEV
modifications: not fully specified (C-terminus)
In experiment [6], B2 showed a Kd of 951 µM.
